Consider 2 proteins from FireProtDB (doi:10.1007/s00775-020-01777-0).

For this data set the following is noted: pH 7.4, UV/Vis spectroscopy, HEPES, transition: 2, reversible: > 90% (Yes), whole UniProt chain shown; for denaturant m value / denaturant midpoint (higher = more stable) / unfolding free energy: 15 °C, GdnHCl, potassium ferricyanide; for Tm / unfolding enthalpy (van 't Hoff): Thermal.
[1] abbreviates: Fragilariopsis cylindrus CCMP1102.

B1: Cytochrome c-553 wild type, A0A1E7EP28 (protein)
chain: MKFAIFATLLVSASAFSINKADVAKAAAAGAIAFSVAAGPAFAGDVGAGEQIFNANCAACHAGGQNVIMPEKTLEKEALDQYLSGGRSEKSVMTQVTNGKNAMPAFGGRLSEEDIANVASYVISSAEAGWEE
With B1, under setting [1], the denaturant m value turned out to be 4.6 kcal/mol/M, the “denaturant midpoint (higher = more stable)” value turned out to be 0.5 M, the unfolding free energy came out at 2.15 kcal/mol and the Tm came to 28.8 °C. The “unfolding enthalpy (van 't Hoff)” value under setting [1] was 44.7 kcal/mol.

B2: Cytochrome c-553 wild type, B8C6L5 (protein)
chain: MKLTIVAALIASASAWTTPKSFESVKAAVAGAAVTAGVAVSPAFAGDVGAGEQIFNANCAACHAGGQNVIMPDKTLEKEALEQYLAGGRNEKAVMTQVTNGKNAMPAFGGRLSDEDIANVASYVIATSEAGWD
As for B2, under “Thalassiosira pseudonana”, the denaturant m value worked out at 2.1 kcal/mol/M, the “denaturant midpoint (higher = more stable)” value worked out at 1.2 M, the unfolding free energy was found to be 2.63 kcal/mol and the Tm came to 39.1 °C. Also, the “unfolding enthalpy (van 't Hoff)” value (Thalassiosira pseudonana) came out at 38.7 kcal/mol.

The term Tm denotes the temperature at which the thermal transition is half complete.
